{"source": "paper PMC3902912", "binders": {"B1": {"name": "LowOc1_Scrambled (dsDNA)", "DNA 1": "CCCTGGTCGGTGTGGCTGGCGACACCTCGCACTCTG", "DNA 2": "CAGAGTGCGAGGTGTCGCCAGCCACACCGACCAGGG"}}, "target": "T1, CTCF11ZF (UniProt Q61164 266-579)", "T1 sequence": "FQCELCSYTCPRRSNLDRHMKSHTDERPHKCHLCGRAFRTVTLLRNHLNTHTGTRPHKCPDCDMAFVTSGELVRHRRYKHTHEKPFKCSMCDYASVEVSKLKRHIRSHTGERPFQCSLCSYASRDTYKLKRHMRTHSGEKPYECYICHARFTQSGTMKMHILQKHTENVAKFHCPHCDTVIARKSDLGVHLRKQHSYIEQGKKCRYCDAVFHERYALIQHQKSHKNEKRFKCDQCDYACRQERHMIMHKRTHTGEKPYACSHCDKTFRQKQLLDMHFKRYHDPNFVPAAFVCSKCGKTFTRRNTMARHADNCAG", "assay": "FP competition"}
{"binder": "B1", "values": [{"measurement": "binding result", "result": "no binding"}]}
